Reference: patent US20140087995A1 (published 2014)
Residue numbers refer to the chain shown, from its start. Numbered stars: 1 amine (or outer) side, 2 acyl side, 3 side chain; on linkers, the order of the positions; unused ones are H or OH. Bridge positions count the residues as written; N and C are the ends. * marks the point of attachment. C20 diacid = O=C(O)CCCCCCCCCCCCCCCCCCC(=O)*; γGlu = O=C(O)[C@H](CCC(=O)[*:2])N[*:1]

T1: human amylin receptor (amylin 3(a) receptor: human calcitonin receptor with RAMP-3) (human, UniProt P30988 25-474; O60896 24-148)
T1 construct: whole, on cells; also called hAmylin-R; hAmylinR
T1 sequence (looked up) 1: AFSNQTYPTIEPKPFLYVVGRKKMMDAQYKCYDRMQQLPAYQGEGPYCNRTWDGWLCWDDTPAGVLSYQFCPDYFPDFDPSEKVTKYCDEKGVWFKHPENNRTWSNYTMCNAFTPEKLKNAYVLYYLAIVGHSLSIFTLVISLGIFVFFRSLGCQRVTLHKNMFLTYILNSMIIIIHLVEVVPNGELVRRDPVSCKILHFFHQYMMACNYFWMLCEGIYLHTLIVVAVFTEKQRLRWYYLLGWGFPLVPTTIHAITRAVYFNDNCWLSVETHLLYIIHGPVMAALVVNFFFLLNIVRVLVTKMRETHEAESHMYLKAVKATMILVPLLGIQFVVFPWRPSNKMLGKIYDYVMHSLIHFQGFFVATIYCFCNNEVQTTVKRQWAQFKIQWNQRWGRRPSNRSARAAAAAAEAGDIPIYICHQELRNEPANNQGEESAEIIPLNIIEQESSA
T1 sequence (looked up) 2: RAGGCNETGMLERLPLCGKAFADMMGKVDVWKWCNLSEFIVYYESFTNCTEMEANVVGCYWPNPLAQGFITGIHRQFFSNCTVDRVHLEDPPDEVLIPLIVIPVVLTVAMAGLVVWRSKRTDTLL

B1: N^α1-[(4S)-4-carboxy-4-(19-carboxynonadecanoylamino)butanoyl]-[Arg17,Pro21,Pro27,Glu35]-h-amylin (peptide)
peptide: KCNTATCATQRLANFLRHSSPNFGAIPSSTNVGSETY
modifications: C20 diacid-gGlu on alpha amino group of N-terminal Lys 1; Cys2-Cys7 disulfide; C-terminal amide
notes: also called 23; compound 23
B2: N^α1-[(4S)-4-carboxy-4-(19-carboxynonadecanoylamino)butanoyl]-[Arg17,Pro21,Pro27,Pro31,Glu35]-h-amylin (peptide)
peptide: {C20 diacid-γGlu}-KCNTATCATQRLANFLRHSSPNFGAIPSSTPVGSETY-NH2
modifications: disulfide 2-7
SMILES: CC[C@H](C)[C@H](NC(=O)[C@H](C)NC(=O)CNC(=O)[C@H](Cc1ccccc1)NC(=O)[C@H](CC(N)=O)NC(=O)[C@@H]1CCCN1C(=O)[C@H](CO)NC(=O)[C@H](CO)NC(=O)[C@H](Cc1c[nH]cn1)NC(=O)[C@H](CCCNC(=N)N)NC(=O)[C@H](CC(C)C)NC(=O)[C@H](Cc1ccccc1)NC(=O)[C@H](CC(N)=O)NC(=O)[C@H](C)NC(=O)[C@H](CC(C)C)NC(=O)[C@H](CCCNC(=N)N)NC(=O)[C@H](CCC(N)=O)NC(=O)[C@@H](NC(=O)[C@H](C)NC(=O)[C@@H]1CSSC[C@H](NC(=O)[C@H](CCCCN)NC(=O)CC[C@H](NC(=O)CCCCCCCCCCCCCCCCCCC(=O)O)C(=O)O)C(=O)N[C@@H](CC(N)=O)C(=O)N[C@@H]([C@@H](C)O)C(=O)N[C@@H](C)C(=O)N[C@@H]([C@@H](C)O)C(=O)N1)[C@@H](C)O)C(=O)N1CCC[C@H]1C(=O)N[C@@H](CO)C(=O)N[C@@H](CO)C(=O)N[C@H](C(=O)N1CCC[C@H]1C(=O)N[C@H](C(=O)NCC(=O)N[C@@H](CO)C(=O)N[C@@H](CCC(=O)O)C(=O)N[C@H](C(=O)N[C@@H](Cc1ccc(O)cc1)C(N)=O)[C@@H](C)O)C(C)C)[C@@H](C)O
notes: also called 28; compound 28
B3: N^α1-[(4S)-4-carboxy-4-(19-carboxynonadecanoylamino)butanoyl]-[Glu14,Arg17,Pro21,Pro25,Pro28,Pro29,Pro37]-h-amylin (peptide)
peptide: {C20 diacid-γGlu}-KCNTATCATQRLAEFLRHSSPNFGPILPPTNVGSNTP-NH2
modifications: disulfide 2-7
SMILES: CC[C@H](C)[C@H](NC(=O)[C@@H]1CCCN1C(=O)CNC(=O)[C@H](Cc1ccccc1)NC(=O)[C@H](CC(N)=O)NC(=O)[C@@H]1CCCN1C(=O)[C@H](CO)NC(=O)[C@H](CO)NC(=O)[C@H](Cc1c[nH]cn1)NC(=O)[C@H](CCCNC(=N)N)NC(=O)[C@H](CC(C)C)NC(=O)[C@H](Cc1ccccc1)NC(=O)[C@H](CCC(=O)O)NC(=O)[C@H](C)NC(=O)[C@H](CC(C)C)NC(=O)[C@H](CCCNC(=N)N)NC(=O)[C@H](CCC(N)=O)NC(=O)[C@@H](NC(=O)[C@H](C)NC(=O)[C@@H]1CSSC[C@H](NC(=O)[C@H](CCCCN)NC(=O)CC[C@H](NC(=O)CCCCCCCCCCCCCCCCCCC(=O)O)C(=O)O)C(=O)N[C@@H](CC(N)=O)C(=O)N[C@@H]([C@@H](C)O)C(=O)N[C@@H](C)C(=O)N[C@@H]([C@@H](C)O)C(=O)N1)[C@@H](C)O)C(=O)N[C@@H](CC(C)C)C(=O)N1CCC[C@H]1C(=O)N1CCC[C@H]1C(=O)N[C@H](C(=O)N[C@@H](CC(N)=O)C(=O)N[C@H](C(=O)NCC(=O)N[C@@H](CO)C(=O)N[C@@H](CC(N)=O)C(=O)N[C@H](C(=O)N1CCC[C@H]1C(N)=O)[C@@H](C)O)C(C)C)[C@@H](C)O
notes: also called compound 4
B4: N^α1-[(4S)-4-carboxy-4-(19-carboxynonadecanoylamino)butanoyl]-[Glu14,Arg17,Pro21,Pro25,Pro28,Pro29]-h-amylin (peptide)
peptide: {C20 diacid-γGlu}-KCNTATCATQRLAEFLRHSSPNFGPILPPTNVGSNTY-NH2
modifications: disulfide 2-7
SMILES: CC[C@H](C)[C@H](NC(=O)[C@@H]1CCCN1C(=O)CNC(=O)[C@H](Cc1ccccc1)NC(=O)[C@H](CC(N)=O)NC(=O)[C@@H]1CCCN1C(=O)[C@H](CO)NC(=O)[C@H](CO)NC(=O)[C@H](Cc1c[nH]cn1)NC(=O)[C@H](CCCNC(=N)N)NC(=O)[C@H](CC(C)C)NC(=O)[C@H](Cc1ccccc1)NC(=O)[C@H](CCC(=O)O)NC(=O)[C@H](C)NC(=O)[C@H](CC(C)C)NC(=O)[C@H](CCCNC(=N)N)NC(=O)[C@H](CCC(N)=O)NC(=O)[C@@H](NC(=O)[C@H](C)NC(=O)[C@@H]1CSSC[C@H](NC(=O)[C@H](CCCCN)NC(=O)CC[C@H](NC(=O)CCCCCCCCCCCCCCCCCCC(=O)O)C(=O)O)C(=O)N[C@@H](CC(N)=O)C(=O)N[C@@H]([C@@H](C)O)C(=O)N[C@@H](C)C(=O)N[C@@H]([C@@H](C)O)C(=O)N1)[C@@H](C)O)C(=O)N[C@@H](CC(C)C)C(=O)N1CCC[C@H]1C(=O)N1CCC[C@H]1C(=O)N[C@H](C(=O)N[C@@H](CC(N)=O)C(=O)N[C@H](C(=O)NCC(=O)N[C@@H](CO)C(=O)N[C@@H](CC(N)=O)C(=O)N[C@H](C(=O)N[C@@H](Cc1ccc(O)cc1)C(N)=O)[C@@H](C)O)C(C)C)[C@@H](C)O
notes: also called compound 6
B5: N^α1-[(4S)-4-carboxy-4-(19-carboxynonadecanoylamino)butanoyl]-[Asp14,Arg17,Pro21,Pro27,Pro37]-h-amylin (peptide)
peptide: {C20 diacid-γGlu}-KCNTATCATQRLADFLRHSSPNFGAIPSSTNVGSNTP-NH2
modifications: disulfide 2-7
SMILES: CC[C@H](C)[C@H](NC(=O)[C@H](C)NC(=O)CNC(=O)[C@H](Cc1ccccc1)NC(=O)[C@H](CC(N)=O)NC(=O)[C@@H]1CCCN1C(=O)[C@H](CO)NC(=O)[C@H](CO)NC(=O)[C@H](Cc1c[nH]cn1)NC(=O)[C@H](CCCNC(=N)N)NC(=O)[C@H](CC(C)C)NC(=O)[C@H](Cc1ccccc1)NC(=O)[C@H](CC(=O)O)NC(=O)[C@H](C)NC(=O)[C@H](CC(C)C)NC(=O)[C@H](CCCNC(=N)N)NC(=O)[C@H](CCC(N)=O)NC(=O)[C@@H](NC(=O)[C@H](C)NC(=O)[C@@H]1CSSC[C@H](NC(=O)[C@H](CCCCN)NC(=O)CC[C@H](NC(=O)CCCCCCCCCCCCCCCCCCC(=O)O)C(=O)O)C(=O)N[C@@H](CC(N)=O)C(=O)N[C@@H]([C@@H](C)O)C(=O)N[C@@H](C)C(=O)N[C@@H]([C@@H](C)O)C(=O)N1)[C@@H](C)O)C(=O)N1CCC[C@H]1C(=O)N[C@@H](CO)C(=O)N[C@@H](CO)C(=O)N[C@H](C(=O)N[C@@H](CC(N)=O)C(=O)N[C@H](C(=O)NCC(=O)N[C@@H](CO)C(=O)N[C@@H](CC(N)=O)C(=O)N[C@H](C(=O)N1CCC[C@H]1C(N)=O)[C@@H](C)O)C(C)C)[C@@H](C)O
notes: also called 10; compound 10
B6: N^α1-[(4S)-4-carboxy-4-(19-carboxynonadecanoylamino)butanoyl]-[Glu14,Arg17,Pro21,Pro26,Pro37]-h-amylin (peptide)
peptide: {C20 diacid-γGlu}-KCNTATCATQRLAEFLRHSSPNFGAPLSSTNVGSNTP-NH2
modifications: disulfide 2-7
SMILES: CC(C)C[C@H](NC(=O)[C@H](CCCNC(=N)N)NC(=O)[C@H](CCC(N)=O)NC(=O)[C@@H](NC(=O)[C@H](C)NC(=O)[C@@H]1CSSC[C@H](NC(=O)[C@H](CCCCN)NC(=O)CC[C@H](NC(=O)CCCCCCCCCCCCCCCCCCC(=O)O)C(=O)O)C(=O)N[C@@H](CC(N)=O)C(=O)N[C@@H]([C@@H](C)O)C(=O)N[C@@H](C)C(=O)N[C@@H]([C@@H](C)O)C(=O)N1)[C@@H](C)O)C(=O)N[C@@H](C)C(=O)N[C@@H](CCC(=O)O)C(=O)N[C@@H](Cc1ccccc1)C(=O)N[C@@H](CC(C)C)C(=O)N[C@@H](CCCNC(=N)N)C(=O)N[C@@H](Cc1c[nH]cn1)C(=O)N[C@@H](CO)C(=O)N[C@@H](CO)C(=O)N1CCC[C@H]1C(=O)N[C@@H](CC(N)=O)C(=O)N[C@@H](Cc1ccccc1)C(=O)NCC(=O)N[C@@H](C)C(=O)N1CCC[C@H]1C(=O)N[C@@H](CC(C)C)C(=O)N[C@@H](CO)C(=O)N[C@@H](CO)C(=O)N[C@H](C(=O)N[C@@H](CC(N)=O)C(=O)N[C@H](C(=O)NCC(=O)N[C@@H](CO)C(=O)N[C@@H](CC(N)=O)C(=O)N[C@H](C(=O)N1CCC[C@H]1C(N)=O)[C@@H](C)O)C(C)C)[C@@H](C)O
notes: also called compound 5
B7: N^α1-[(4S)-4-carboxy-4-(19-carboxynonadecanoylamino)butanoyl]-[Arg17,Pro21,Pro27,His34]-h-amylin (peptide)
peptide: B1 peptide with S34H, E35N
modifications: C20 diacid-gGlu on alpha amino group of N-terminal Lys 1; Cys2-Cys7 disulfide; C-terminal amide
notes: also called 40; compound 40

The binders below were run against T1, human amylin receptor (amylin 3(a) …) (assay: SPA displacement of 125I-rat amylin, hAmylin 3(a) receptor membranes).
Description: The binding assay was performed using scintillation proximity assay (SPA) beads (RPNQ0001) from PerkinElmer and cell membranes from the Amylin 3(a)/CRE-luc cells (as described in Assay (II)) were used. Membranes were prepared in the following way; the cells were rinsed with PBS and incubated with Versene for approximately 5 min before harvesting. The cells were flushed with PBS and the cell-suspension was centrifuged for 5 min at 1000 rpm. Cells were homogenized (ultrathurrax) in a buffer containing 20 mM Na-HEPES and 10 mM EDTA (pH 7.4) and centrifuged at 20.000 rpm for 15 min. The resulting pellet was resuspended, homogenized and centrifuged (20.000 rpm, 15 min) in a buffer containing 20 mM Na-HEPES and 0.1 mM EDTA (pH 7.4, buffer 2). The resulting pellet was resuspended in buffer 2 and protein concentration was measured (BCA protein Assay, Pierce). The homogenate was kept cold during the whole procedure. The membranes were kept at −80° C. until use. The assay was performed in a 384 well Optiplate (PerkinElmer) in a total volume of 40 ul. Membranes were mixed with SPA beads. Final concentration of membranes 35 ng/μL final and SPA beads was 0.05 mg/well. Test-compounds were dissolved in DMSO and further diluted in assay buffer (50 mM Hepes, pH 7.4, 1 mM CaCl2, 5 mM MgCl₂, 0.1% OA and 0.02% Tween20). […] The final mixture was incubated with shaking at 400 rpm for 120 min at 25° C. prior to centrifugation (1500 rpm, 10 min). Samples were analyzed on TopCounter™ (Packard). The IC₅₀ was calculated using (one site binding competition analysis) GraphPad Prism5 as a measure of receptor affinity.

IC50 [nM]	Binder
0.871	B1
0.61	B2
0.321	B3
0.996	B4
0.082	B5
0.374	B6
0.549	B7
